Numbering of substitutions follows the chain as printed. Names may count otherwise.

Results on 3 molecules are retold here after publication PMC3438964 (The Journal of Biological Chemistry, 2012).

The target of one data set is T1, hUXS1 (Homo sapiens, UniProt Q8NBZ7).
T1 sequence (Q8NBZ7 85-402): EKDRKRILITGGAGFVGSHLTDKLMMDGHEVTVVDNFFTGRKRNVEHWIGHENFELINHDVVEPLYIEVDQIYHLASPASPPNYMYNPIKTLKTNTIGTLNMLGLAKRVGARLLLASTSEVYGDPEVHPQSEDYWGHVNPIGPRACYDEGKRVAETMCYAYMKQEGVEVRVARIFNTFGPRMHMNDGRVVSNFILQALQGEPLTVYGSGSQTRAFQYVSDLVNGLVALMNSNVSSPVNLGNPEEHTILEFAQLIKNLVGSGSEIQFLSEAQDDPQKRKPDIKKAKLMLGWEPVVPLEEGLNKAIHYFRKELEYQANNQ
The experiment in a line: X-ray crystal structure, […] Å. The format is binding. The settings on record: SeMet-labelled protein; 5 mM NAD+, 5 mM UDP; coenzyme site.

Substrate in the data set “purified protein”: O=C(O)[C@H]1O[C@H](OP(=O)(O)OP(=O)(O)OC[C@H]2O[C@@H](n3ccc(=O)[nH]c3=O)[C@H](O)[C@@H]2O)[C@H](O)[C@@H](O)[C@@H]1O
The experiment in a line: purified protein. Conditions: 50 mM Tris/HCl pH 7.5, 25 °C.

Consider `NC(=O)c1ccc[n+]([C@@H]2O[C@H](COP(=O)(O)OP(=O)(O)OC[C@H]3O[C@@H](n4cnc5c(N)ncnc54)[C@H](O)[C@@H]3O)[C@@H](O)[C@H]2O)c1` [NAD^+], for which the “X-ray crystal structure, 1.26 Å” value on hUXS1 is “We solved the crystal structure of hUXS1 in complex with NAD^+ and UDP”.

B1: hUXS1 (Homo sapiens) (protein)
chain: T1 sequence (Q8NBZ7 85-402)
In the case of B1, the kcat in the data set “purified protein” (0.5 mM NAD+) was 0.2/oxidation^e.

B2: hUXS1 (Homo sapiens; E204A) (protein)
chain: T1 sequence (Q8NBZ7 85-402) with E120A
Consider B2, for which the kcat in the data set “purified protein” (10 mM NAD+) is recorded as 1.7 × 10^−3/reduction^e.
